# Measurements: US12552866B2, “Internalizing binding molecules targeting receptors involved in cell proliferation or in cell differentiation” (LinXis B.V., priority 2019, dated 2026)
# Where a chain is given by its changes, count along the chain named. Entries after “also recorded” stand apart in the source; their conditions may differ.
# B1: 13E8: VHH targeting IGF2R, SEQ ID NO: 249 (protein, listed as Lama glama)
# VHH: EVQLVESGGGLVQAGGSLRLSCAASRSISPMGWYRQAPGKQRELVAIMPSSGPPIYADSVQGRFTISRDNAKNTVYLQMNSLKPEDTAVYYCNVGGGYWGQGTQVTVSS
# B2: 13F11-A647: VHH 13F11 with C-terminal free cysteine conjugated using maleimide chemistry to Alexa Fluor 647 (conjugate)
# VHH: EVQLVESGGRLVQPGDSLRLSCAASGRTFSDNAMGWFRQAPGKERRFVAGISWAGGSTYYSDSVKGRFTISRDNAKNTVYLQMNSLKPEDTAVYYCAAGLRAWVQRMPKDYNYWGQGTQVTVSS
# B3: 13A8: VHH targeting IGF2R, SEQ ID NO: 257 (protein, listed as Lama glama)
# VHH: EVQLVESGGGLVPAGGSLRLSCAASGRTFSNYAMGWFRQAPGKERKFVATISWSGGVTYYADSVKGRFTISRDNAKNTVYLLMNSLKPEDTAVYYCAAKRDSSSYDHRRYDYWGQGTQVTVSS
# B4: 13A12: VHH targeting IGF2R, SEQ ID NO: 289 (protein, listed as Lama glama)
# VHH: EVQLVESGGGLVQAGGSLRLSCAASGIIFGANTVGWYRQVPGKERDVVASITSGDSTYYGDSVRGRFTISRDNAKNTMYLQMNSLKPEDTAIYYCRARTTDGSYWGQGTQVTVS
# B5: 13F11-13E8-ABD: 13F11-13E8 re-engineered to include an albumin binding domain (ABD) as half-life extender (protein)
# chain: EVQLVESGGRLVQPGDSLRLSCAASGRTFSDNAMGWFRQAPGKERRFVAGISWAGGSTYYSDSVKGRFTISRDNAKNTVYLQMNSLKPEDTAVYYCAAGLRAWVQRMPKDYNYWGQGTQVTVSSGGGGSGGGGSGGGGSEVQLVESGGGLVQAGGSLRLSCAASRSISPMGWYRQAPGKQRELVAIMPSSGPPIYADSVQGRFTISRDNAKNTVYLQMNSLKPEDTAVYYCNVGGGYWGQGTQVTVSS
# modifications: left off: large carriers; small tags and cut ends
# B6: 13F11-13E8-ABD-AF647: 13F11-13E8-ABD conjugated to Alexa Fluor 647 (conjugate)
# chain: B5 chain
# modifications: left off: large carriers; small tags and cut ends
# B7: test conjugate: 13F11-13E8-ABD conjugated to a Y27632-maleimide modified functional moiety (1e) (conjugate)
# chain: B5 chain
# modifications: non-natural residues; left off: large carriers; small tags and cut ends
# B8: 13C11: VHH targeting IGF2R, SEQ ID NO: 297 (protein, listed as Lama glama)
# VHH: EVQLVESGGGLVQAGGSLRLSCAASGLTFSSYTMAWYRQAPGKEREVVAAISSGDSIYHEGSVQGRFIISRDNAKNTVYLQMNSLKAEDTAVYYCRANGPGTYWGQGTQVTVSS
# B9: 13G10: VHH targeting IGF2R, SEQ ID NO: 305 (protein, listed as Lama glama)
# VHH: B8 VHH with G61D
# How the values were obtained:
# hIGF2R-ECD [1] = molecular target: T1, hIGF2R-ECD (Homo sapiens, UniProt P11717); experiment: Competition ELISA with 13F11-A647 on immobilized hIGF2R-ECD; format: binding; conditions: for competition with 13F11 for binding to hIGF2R-ECD: 10 nM 13F11-A647, 250 nM unconjugated competitor
# T1 construct: recombinant human extracellular domain of IGF2R (hIGF2R-ECD)
# Protocol: With the term “compete” is meant that in a competition assay, such as for instance described in Example 5 and Example 8 of the present invention, the addition of a binding molecule induces a significant decrease in binding of a given VHH, i.e., the VHH to which the competing is determined. “Significant” in this respect is preferably a decrease of >5%, preferably >10% when 250 nM of a binding molecule is added to 10 nM of a fluorescence labelled VHH in an ELISA. […] The same test conditions and threshold apply to a binding molecule directed to PDGFRB when determining whether a binding molecule competes with a given VHH.
# From the panel of 15 hIGF2R specific binders (FIG. 2), VHHs 13A8, 13A12, 13C11, 13E8, 13F11 and 13G10 were chosen for further characterization. A competition assay was performed to determine if the selected VHHs recognize distinct epitopes on hIGF2R. For this, a non-saturating amount (10 nM) of 13F11 conjugated to Alexa Fluor 647 (13F11-A647, conjugation method as described in example 9.2) was incubated with immobilized hIGF2R-ECD in the presence of unconjugated competitor (250 nM) (FIG. 10). Incubation of hIGF2R-ECD with 13F11-A647+13F11 was used as a positive control and incubation of hIGF2R-ECD with only 13F11-A647 was used to define the maximal fluorescence intensity.
# hIGF2R-ECD [2] = molecular target: T1, hIGF2R-ECD; experiment: Binding assay / titration ELISA on recombinant hIGF2R-ECD; conditions: construct conjugated to Alexa Fluor 647, direct read out; KD+SEM, n=2; read-out: calculated affinity (KD)
# Protocol: The 15 unique hIGF2R binders (Example 1.1, FIG. 2) were produced and purified as described in examples 2 and 3. The apparent affinities were determined with binding assays on hIGF2R-ECD. Briefly, three-fold serial VHH dilutions, starting from 1 μM, were added onto hIGF2R-ECD coated plates. After 2 hours of incubation, plates were washed and bound VHH was detected using a VHH-specific IgG antibody, followed by an IRD800CW-conjugated IgG-specific antibody. […] VHH 13F11 was also produced with a C-terminal free cysteine and conjugated using maleimide chemistry to Alexa Fluor 647 (13F11-A647 in FIG. 8A, conjugation method as described in example 9.2). A titration ELISA (direct read out at 647 nm) with this construct was carried out on hIGF2R-ECD to determine whether the affinity was affected after site directed conjugation (FIG. 8B). The KD and Bmax were calculated in Graphpad (version 8.3), using one-site specific binding analysis (FIG. 8C).
# Based on their high affinity and binding to non-overlapping receptor epitopes, VHHs 13F11 and 13E8 were selected for the design of biparatopic and bivalent VHH constructs. Two VHHs were fused with a flexible linker, consisting of three Gly-Gly-Gly-Gly-Ser repeats (FIG. 8A). The sequences were codon optimized for expression in E. coli and obtained as synthesized DNA fragments from GeneArt. The DNA fragments encoding VHHs were cloned into a vector pET28-based vector introducing a C-terminal free cysteine for site-directed conjugation and His6 tag for IMAC purification (FIG. 8A). The constructs were produced and purified as described in example 3. The constructs were conjugated to Alexa Fluor 647 (conjugation method as described in example 9.2) and titration ELISAs on recombinant hIGF2R-ECD (as described in example 4.1) were performed to determine the KD and Bmax (calculated in Graphpad (version 8.3), using one-site specific binding analysis) (FIG. 8C).
# Next, 13F11-13E8 was genetically re-engineered to include an in vivo half-life extender in the form of an albumin binding domain (ABD) as described by Johansson et al (Structure, specificity, and mode of interaction for bacterial albumin-binding modules, J. Biol. Chem. 2002 (277): 8114-8120) and subsequently produced and purified as described in Example 3. Subsequently, 13F11-13E8-ABD was conjugated to IRDye800CW (F11E8-ABD-IRD800, conjugation method as described in example 9.2) and the binding affinities of the biparatopic VHH as well as the ABD unit was determined. […] The binding affinity (KD) of F11-E8-ABD-IRD800 to rat serum albumin (RSA) was 30 nM and to mouse serum albumin (MSA) and human serum albumin (HSA) the binding affinity was approximately 200 nM.
# [3] = In vivo pharmacokinetics in healthy Sprague-Dawley rats (serum ELISA); parameters: species or system rat
# Protocol: The in vivo pharmacokinetic properties of 13F11-13E8-ABD was compared to 13F11-13E8 without the ABD moiety in healthy Sprague-Dawley rats. In brief, rats were dosed intravenously with approximately 3 mg/kg body weight and blood samples were taken at different time points and the concentration of the VHH constructs were determined using an ELISA on immobilized hIGF2R-ECD.
# IGF2R [4] = molecular target: T2, IGF2R (Rattus norvegicus, UniProt G3V824); experiment: Immunofluorescence staining of tissue cryo-sections of BDL and SHAM rats
# T2 construct: from tissue; host or cells: cryo-sections of liver and other tissues, and liver in vivo, of Sprague-Dawley BDL and SHAM rats
# T2 sequence (G3V824 36-2481): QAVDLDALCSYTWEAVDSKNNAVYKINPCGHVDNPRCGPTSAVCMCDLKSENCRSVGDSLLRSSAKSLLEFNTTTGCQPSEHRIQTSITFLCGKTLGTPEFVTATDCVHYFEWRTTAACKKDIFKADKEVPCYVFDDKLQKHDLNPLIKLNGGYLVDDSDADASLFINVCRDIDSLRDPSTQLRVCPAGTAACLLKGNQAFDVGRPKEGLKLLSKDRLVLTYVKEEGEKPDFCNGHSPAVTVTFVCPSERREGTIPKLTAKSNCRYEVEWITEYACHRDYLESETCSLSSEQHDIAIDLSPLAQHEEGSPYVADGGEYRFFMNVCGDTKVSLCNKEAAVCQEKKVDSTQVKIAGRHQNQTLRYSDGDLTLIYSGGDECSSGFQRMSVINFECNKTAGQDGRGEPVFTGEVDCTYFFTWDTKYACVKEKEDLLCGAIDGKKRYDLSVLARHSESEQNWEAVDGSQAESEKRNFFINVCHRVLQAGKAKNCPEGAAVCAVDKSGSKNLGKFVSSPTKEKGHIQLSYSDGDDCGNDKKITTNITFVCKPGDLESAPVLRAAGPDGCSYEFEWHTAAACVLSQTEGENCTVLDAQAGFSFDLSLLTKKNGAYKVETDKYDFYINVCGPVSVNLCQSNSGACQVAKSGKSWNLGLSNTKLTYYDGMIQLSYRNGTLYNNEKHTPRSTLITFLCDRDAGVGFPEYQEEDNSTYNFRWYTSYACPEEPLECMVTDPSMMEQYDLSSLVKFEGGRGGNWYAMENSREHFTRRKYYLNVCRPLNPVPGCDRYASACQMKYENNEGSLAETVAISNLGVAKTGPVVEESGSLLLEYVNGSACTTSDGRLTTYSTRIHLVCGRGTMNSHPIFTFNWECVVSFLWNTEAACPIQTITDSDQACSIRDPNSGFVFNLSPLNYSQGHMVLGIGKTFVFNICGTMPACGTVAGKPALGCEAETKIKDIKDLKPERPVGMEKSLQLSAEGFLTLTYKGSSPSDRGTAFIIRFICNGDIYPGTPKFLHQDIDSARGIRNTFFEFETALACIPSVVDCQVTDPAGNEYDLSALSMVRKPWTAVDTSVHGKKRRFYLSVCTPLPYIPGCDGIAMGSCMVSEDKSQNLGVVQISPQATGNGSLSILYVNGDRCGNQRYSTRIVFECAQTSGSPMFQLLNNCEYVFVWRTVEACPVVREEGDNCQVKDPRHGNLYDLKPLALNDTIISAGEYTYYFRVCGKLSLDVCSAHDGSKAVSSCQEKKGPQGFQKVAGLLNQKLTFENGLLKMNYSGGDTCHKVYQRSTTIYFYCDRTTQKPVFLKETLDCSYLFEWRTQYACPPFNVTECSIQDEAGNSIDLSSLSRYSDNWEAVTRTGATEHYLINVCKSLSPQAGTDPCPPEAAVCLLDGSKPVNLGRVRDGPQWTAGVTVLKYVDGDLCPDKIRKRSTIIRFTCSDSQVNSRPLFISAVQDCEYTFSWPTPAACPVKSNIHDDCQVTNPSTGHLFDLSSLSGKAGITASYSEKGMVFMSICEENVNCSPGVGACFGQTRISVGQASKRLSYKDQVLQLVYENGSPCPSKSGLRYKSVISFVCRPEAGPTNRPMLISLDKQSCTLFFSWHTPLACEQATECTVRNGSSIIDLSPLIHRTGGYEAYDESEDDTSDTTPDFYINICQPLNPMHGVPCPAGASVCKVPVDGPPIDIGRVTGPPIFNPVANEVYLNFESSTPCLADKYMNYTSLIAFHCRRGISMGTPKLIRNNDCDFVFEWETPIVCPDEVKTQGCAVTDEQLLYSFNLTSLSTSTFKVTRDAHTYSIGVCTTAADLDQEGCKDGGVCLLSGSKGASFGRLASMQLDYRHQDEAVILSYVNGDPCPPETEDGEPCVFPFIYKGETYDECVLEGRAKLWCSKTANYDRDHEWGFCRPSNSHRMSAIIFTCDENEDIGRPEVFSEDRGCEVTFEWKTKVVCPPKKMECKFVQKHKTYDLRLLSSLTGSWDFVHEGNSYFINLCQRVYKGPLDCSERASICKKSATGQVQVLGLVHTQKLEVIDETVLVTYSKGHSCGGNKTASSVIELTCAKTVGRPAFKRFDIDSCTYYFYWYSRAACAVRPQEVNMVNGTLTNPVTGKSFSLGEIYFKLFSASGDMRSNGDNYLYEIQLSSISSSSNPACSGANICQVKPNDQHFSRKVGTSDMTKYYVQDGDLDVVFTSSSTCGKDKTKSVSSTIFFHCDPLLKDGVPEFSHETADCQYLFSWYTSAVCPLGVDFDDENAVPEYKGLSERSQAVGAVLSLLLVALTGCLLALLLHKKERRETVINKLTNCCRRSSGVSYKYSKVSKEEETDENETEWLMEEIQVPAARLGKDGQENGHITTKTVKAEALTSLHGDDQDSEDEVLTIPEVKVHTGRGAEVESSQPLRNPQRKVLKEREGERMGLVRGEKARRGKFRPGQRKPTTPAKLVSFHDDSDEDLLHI
# Protocol: After cryo-sectioning, the tissue sections were stained with 50 nM fluorescent 13F11-13E8-ABD-AF647 and incubated overnight at 4° C. Subsequently, the sections were washed and stained with DAPI and mounted with mowiol mounting medium (Merck) and were imaged on a Zeiss LSM700 laser scanning confocal microscope with a 20× objective.
# IGF2R [5] = molecular target: T2, IGF2R; experiment: In situ detection of infused conjugate in liver cryo-sections (in vivo targeting of IGF2R)
# Protocol: (§1) After catheterization and hemodynamic stabilization, rats were dosed with 5 mg/kg test conjugate or mock conjugate i.v. through the lateral tail vein and pressures were monitored continuously (example 13.1.). One hour after dosing, animals were sacrificed after which tissues were isolated for ex vivo analysis (example 13.2.).
# After isolation, livers obtained from test conjugate-infused BDL and SHAM rats were fixated with paraformaldehyde, soaked in 30% (w/v) sucrose in PBS, and sectioned using cryo-microtome. To detect the test conjugate in situ, tissue sections were stained with a rabbit polyclonal anti-VHH antiserum recognizing the 13F11-13E8 moiety of the conjugate, followed by an anti-rabbit antibody conjugated to the fluorophore Alexa-488 for visualization by confocal fluorescence microscopy (cf. example 12). […] Further accumulation of the test conjugate in the BDL liver beyond this one-hour time point was likely to have occurred.
# [6] = test system: BDL rats (portal hypertension); experiment: Portal pressure and mean arterial pressure in BDL and SHAM rats after i.v. dosing; format: in vivo, rat; conditions: 5 mg/kg i.v.
# Description: To evaluate in vivo functionality, 13F11-13E8-ABD was conjugated to a Y27632-maleimide modified functional moiety (1e) (the test conjugate) as outlined in example 9.2. To provide a comparator, a similar amount of 13F11-13E8-ABD was conjugated to N-ethylmaleimide in a parallel and similar preparation (the mock conjugate).
# To establish animals displaying portal hypertension (Klein et al, Fibrosis: Methods and Protocols. Methods in Molecular Biology. 2017 (1627): 91-122.), Sprague-Dawley rats were subjected to bile duct ligation (BDL) through median laparotomy under ketamine/xylazine-induced anaesthesia i.p. (BDL rats). To provide healthy controls, a second cohort of rats was subjected to the same surgical procedure except for actual ligation of the bile duct (SHAM rats). Surgery was followed-up with pain control medication (carprofen s.c.). Approximately five weeks after surgery, ketamine/xylazine anesthetized rats were subjected to median laparotomy, after which one catheter was inserted through an ileocecal vein to the portal vein, and one catheter was inserted into the femoral artery. The catheters were connected to pressure recording equipment, for assessment of portal pressure and mean arterial pressure, respectively.
# as §1
# [7] = one hour after 5 mg/kg i.v., anti-VHH staining
molecule,measurement,setting,value
B1,competition with 13F11 for binding to hIGF2R-ECD,hIGF2R-ECD [1],did not compete; also recorded: do not compete
same,decrease in fluorescence intensity of labelled 13F11,"hIGF2R-ECD [1]; 10 nM labelled 13F11, 250 nM unlabelled competitor",less than 5%
B2,Kd,hIGF2R-ECD [2],1 ± 0.61 nM
B3,competition with 13F11 for binding to hIGF2R-ECD,hIGF2R-ECD [1],complete competition; also recorded: compete
B4,competition with 13F11 for binding to hIGF2R-ECD,hIGF2R-ECD [1],compete
B5,fraction of the infused dose still in circulation,"[3]; one hour after dosing, estimated serum volume 10 mL",approximately 50%
same,Cmax,"[3]; rat, i.v., approximately 3 mg/kg, read-out: peak serum level (Cmax)",> 1000 nM
B6,binding to cells in liver sections of BDL rats,"IGF2R [4]; 50 nM, overnight at 4° C.",clearly binds to cells in a liver from BDL rats
same,binding to cells in liver sections of SHAM rats,"IGF2R [4]; 50 nM, overnight at 4° C.",not to cells in a liver from SHAM rats
same,"staining of other tissues (kidney, spleen, heart, ileum, brain)",IGF2R [4]; BDL and SHAM rats,"no, or minor staining"
B7,distribution of conjugate versus tissue distribution of IGF2R,IGF2R [5]; liver of BDL rats,overlapped with the (tissue) distribution of IGF2R; also recorded: displays co-localization with IGF2R
same,detection of conjugate in liver of BDL rats,IGF2R [5]; [7],clearly detected
same,detection of conjugate in liver of SHAM rats,IGF2R [5]; [7],not in the healthy liver of SHAM rats
same,mean arterial pressure (MAP),"[6]; BDL rats, one hour",remained constant
same,portal pressure (PP),"[6]; BDL rats, one hour",gradual decrease of portal pressure
same,portal or arterial pressure,[6]; SHAM rats,neither the test conjugate nor the mock conjugate affected portal or arterial pressure
B8,competition with 13F11 for binding to hIGF2R-ECD,hIGF2R-ECD [1],compete
B9,competition with 13F11 for binding to hIGF2R-ECD,hIGF2R-ECD [1],compete
